Patent US12246067 (BIONTECH US, dated 2025)

Biological target: T1, HLA-A02:01 (human)
T1 construct: only the allele is given; also called HLA-A02:01 allele protein
Experiment: measured peptide-HLA affinity; method not detailed

First: FLVVVGACGV [KRAS G12C affinity-enhanced peptide FLVVVGACGV]
Second: MLVVVGACGV [KRAS G12C affinity-enhanced peptide MLVVVGACGV]
The “Measured Affinity” value of the first is 4.3-fold lower: 4.2 nM for the first, 18.2 nM for the second.

First: FMVVVGACGV [KRAS G12C affinity-enhanced peptide FMVVVGACGV]
Second: YMVVVGACGV [KRAS G12C affinity-enhanced peptide YMVVVGACGV]
The “Measured Affinity” value of the first is 6.4-fold lower: 1.1 nM for the first, 7 nM for the second.

Going from FLVVVGACGI [KRAS G12C affinity-enhanced peptide FLVVVGACGI] to KMVVVGACGV [KRAS G12C affinity-enhanced peptide KMVVVGACGV], the “Measured Affinity” value falls from 27.8 nM to 11.9 nM (2.3-fold).

Going from MMVVVGACGV [KRAS G12C affinity-enhanced peptide MMVVVGACGV] to YLVVVGACGV [KRAS G12C affinity-enhanced peptide YLVVVGACGV], the “Measured Affinity” value falls from 18.9 nM to 3.9 nM (4.8-fold).

FMVVVGACGL [KRAS G12C affinity-enhanced peptide FMVVVGACGL] and FLVVVGACGL [KRAS G12C affinity-enhanced peptide FLVVVGACGL] are within 1.5-fold of each other in “Measured Affinity” value: 85.3 nM for the first, 69.4 nM for the second.

In the case of FMVVVGACGI [KRAS G12C affinity-enhanced peptide FMVVVGACGI], the “Measured Affinity” value is reported as 17 nM.

Biological target: T2, HLA-A03.01 (human)
T2 construct: The assay format and the HLA construct are not described
Experiment: peptide-HLA class I complex stability, method not described

Going from VVVGADGVGK [KRAS, G12D peptide VVVGADGVGK] to VVVGAVGVGK [KRAS, G12V peptide VVVGAVGVGK], the Measured stability rises from 2.3 h to 6.7 h (2.9-fold).

VVGACGVGK [KRAS, G12C peptide VVGACGVGK] showed a Measured stability of 5 h.

Biological target: T3, HLA-A11.01 (human)
T3 construct: The assay format and the HLA construct are not described
Experiment: as above

First: VVVGADGVGK [KRAS, G12D peptide VVVGADGVGK]
Second: VVVGAVGVGK [KRAS, G12V peptide VVVGAVGVGK]
The Measured stability of the first is 1.9-fold lower: 13 h for the first, 24.3 h for the second.

Going from VVGACGVGK [KRAS, G12C peptide VVGACGVGK] to VVGADGVGK [KRAS, G12D peptide VVGADGVGK], the Measured stability falls from 10 h to 3.4 h (2.9-fold).

Biological target: T1, HLA-A02:01
Experiment: measured peptide-HLA complex stability; method not detailed

Going from FLVVVGACGV [KRAS G12C affinity-enhanced peptide FLVVVGACGV] to MLVVVGACGV [KRAS G12C affinity-enhanced peptide MLVVVGACGV], the “Measured stability” value falls from 7.4 h to 1.7 h (4.4-fold).

FMVVVGACGV [KRAS G12C affinity-enhanced peptide FMVVVGACGV] and YMVVVGACGV [KRAS G12C affinity-enhanced peptide YMVVVGACGV] are within 1.5-fold of each other in “Measured stability” value: 5.4 h for the first, 6.4 h for the second.

First: FLVVVGACGI [KRAS G12C affinity-enhanced peptide FLVVVGACGI]
Second: KMVVVGACGV [KRAS G12C affinity-enhanced peptide KMVVVGACGV]
The “Measured stability” value of the first is 2.7-fold lower: 1.4 h for the first, 3.8 h for the second.

Going from MMVVVGACGV [KRAS G12C affinity-enhanced peptide MMVVVGACGV] to YLVVVGACGV [KRAS G12C affinity-enhanced peptide YLVVVGACGV], the “Measured stability” value rises from 2.1 h to 9.3 h (4.4-fold).

Going from FMVVVGACGL [KRAS G12C affinity-enhanced peptide FMVVVGACGL] to FLVVVGACGL [KRAS G12C affinity-enhanced peptide FLVVVGACGL], the “Measured stability” value rises from 0.9 h to 1.4 h (1.6-fold).

FMVVVGACGI [KRAS G12C affinity-enhanced peptide FMVVVGACGI] was tested, and the “Measured stability” value was 1 h.
